According to IntAct's records for PubMed 35512704:

B1: Speckle-type POZ protein (Homo sapiens), O43791 (parent)
chain: MSRVPSPPPPAEMSSGPVAESWCYTQIKVVKFSYMWTINNFSFCREEMGEVIKSSTFSSGANDKLKWCLRVNPKGLDEESKDYLSLYLLLVSCPKSEVRAKFKFSILNAKGEETKAMESQRAYRFVQGKDWGFKKFIRRDFLLDEANGLLPDDKLTLFCEVSVVQDSVNISGQNTMNMVKVPECRLADELGGLWENSRFTDCCLCVAGQEFQAHKAILAARSPVFSAMFEHEMEESKKNRVEINDVEPEVFKEMMCFIYTGKAPNLDKMADDLLAAADKYALERLKVMCEDALCSNLSVENAAEILILADLHSADQLKTQAVDFINYHASDVLETSGWKSMVVSHPHLVAEAYRSLASAQCPFLGPPRKRLKQS

Variants of: B1
Conditions: with sox2_human SOX2, P48431

| effect of a mutation on the interaction | Variant |
| --- | --- |
| with no effect | MSRVPSPPPPAEMSSGPVAESWCYTQIKVVKFSYMWTINNFSFCREEMGEVIKSSTFSSGANDKLKWCLRVNPKGLDEESKDYLSLYLLLVSCPKSEVRAKFKFSILNAKGEETKAMESQRAYRFVQGKDWGVKKFIRRDFLLDEANGLLPDDKLTLFCEVSVVQDSVNISGQNTMNMVKVPECRLADELGGLWENSRFTDCCLCVAGQEFQAHKAILAARSPVFSAMFEHEMEESKKNRVEINDVEPEVFKEMMCFIYTGKAPNLDKMADDLLAAADKYALERLKVMCEDALCSNLSVENAAEILILADLHSADQLKTQAVDFINYHASDVLETSGWKSMVVSHPHLVAEAYRSLASAQCPFLGPPRKRLKQS [F133V] |

Variants of: B1
Conditions: with src_human SRC

| effect of a mutation on the interaction | Variant |
| --- | --- |
| with no effect | MSRVPSPPPPAEMSSGPVAESWCYTQIKVVKFSYMWTINNFSFCREEMGEVIKSSTFSSGANDKLKWCLRVNPKGLDEESKDYLSLYLLLVSCPKSEVRAKFKFSILNAKGEETKAMESQRAYRFVQGKDWGVKKFIRRDFLLDEANGLLPDDKLTLFCEVSVVQDSVNISGQNTMNMVKVPECRLADELGGLWENSRFTDCCLCVAGQEFQAHKAILAARSPVFSAMFEHEMEESKKNRVEINDVEPEVFKEMMCFIYTGKAPNLDKMADDLLAAADKYALERLKVMCEDALCSNLSVENAAEILILADLHSADQLKTQAVDFINYHASDVLETSGWKSMVVSHPHLVAEAYRSLASAQCPFLGPPRKRLKQS [F133V] |

Variants of: B1
Conditions: with whr1_human WHR1, P49842
Sequence of whr1_human WHR1, P49842 (P49842 whole entry): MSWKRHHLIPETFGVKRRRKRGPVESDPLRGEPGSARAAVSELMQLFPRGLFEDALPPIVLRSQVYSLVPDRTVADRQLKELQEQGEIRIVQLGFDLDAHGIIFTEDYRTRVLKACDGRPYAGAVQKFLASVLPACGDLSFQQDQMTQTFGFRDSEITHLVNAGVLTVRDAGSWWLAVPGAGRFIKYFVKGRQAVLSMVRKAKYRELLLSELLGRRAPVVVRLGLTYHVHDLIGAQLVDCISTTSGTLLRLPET

| effect of a mutation on the interaction | Variant |
| --- | --- |
| with no effect | MSRVPSPPPPAEMSSGPVAESWCYTQIKVVKFSYMWTINNFSFCREEMGEVIKSSTFSSGANDKLKWCLRVNPKGLDEESKDYLSLYLLLVSCPKSEVRAKFKFSILNAKGEETKAMESQRAYRFVQGKDWGVKKFIRRDFLLDEANGLLPDDKLTLFCEVSVVQDSVNISGQNTMNMVKVPECRLADELGGLWENSRFTDCCLCVAGQEFQAHKAILAARSPVFSAMFEHEMEESKKNRVEINDVEPEVFKEMMCFIYTGKAPNLDKMADDLLAAADKYALERLKVMCEDALCSNLSVENAAEILILADLHSADQLKTQAVDFINYHASDVLETSGWKSMVVSHPHLVAEAYRSLASAQCPFLGPPRKRLKQS [F133V] |

Variants of: B1
Conditions: with stk38_human STK38, Q15208
Sequence of stk38_human STK38, Q15208 (Q15208 whole entry, looked up): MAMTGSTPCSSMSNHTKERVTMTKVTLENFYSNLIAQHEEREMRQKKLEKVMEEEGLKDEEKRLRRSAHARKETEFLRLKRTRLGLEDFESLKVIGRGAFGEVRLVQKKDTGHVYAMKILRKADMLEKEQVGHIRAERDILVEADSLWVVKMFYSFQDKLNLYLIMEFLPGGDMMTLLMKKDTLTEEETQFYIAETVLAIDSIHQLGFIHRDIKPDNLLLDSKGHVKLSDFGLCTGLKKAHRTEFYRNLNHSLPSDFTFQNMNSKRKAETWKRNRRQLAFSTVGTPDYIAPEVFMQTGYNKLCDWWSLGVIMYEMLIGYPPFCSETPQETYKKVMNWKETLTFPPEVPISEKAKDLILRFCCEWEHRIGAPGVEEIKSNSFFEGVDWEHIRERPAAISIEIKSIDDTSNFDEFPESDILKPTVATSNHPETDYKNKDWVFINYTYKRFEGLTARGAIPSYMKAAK

| effect of a mutation on the interaction | Variant |
| --- | --- |
| with no effect | MSRVPSPPPPAEMSSGPVAESWCYTQIKVVKFSYMWTINNFSFCREEMGEVIKSSTFSSGANDKLKWCLRVNPKGLDEESKDYLSLYLLLVSCPKSEVRAKFKFSILNAKGEETKAMESQRAYRFVQGKDWGVKKFIRRDFLLDEANGLLPDDKLTLFCEVSVVQDSVNISGQNTMNMVKVPECRLADELGGLWENSRFTDCCLCVAGQEFQAHKAILAARSPVFSAMFEHEMEESKKNRVEINDVEPEVFKEMMCFIYTGKAPNLDKMADDLLAAADKYALERLKVMCEDALCSNLSVENAAEILILADLHSADQLKTQAVDFINYHASDVLETSGWKSMVVSHPHLVAEAYRSLASAQCPFLGPPRKRLKQS [F133V] |

Variants of: B1
Conditions: with eloc_human ELOC

| effect of a mutation on the interaction | Variant |
| --- | --- |
| with no effect | MSRVPSPPPPAEMSSGPVAESWCYTQIKVVKFSYMWTINNFSFCREEMGEVIKSSTFSSGANDKLKWCLRVNPKGLDEESKDYLSLYLLLVSCPKSEVRAKFKFSILNAKGEETKAMESQRAYRFVQGKDWGVKKFIRRDFLLDEANGLLPDDKLTLFCEVSVVQDSVNISGQNTMNMVKVPECRLADELGGLWENSRFTDCCLCVAGQEFQAHKAILAARSPVFSAMFEHEMEESKKNRVEINDVEPEVFKEMMCFIYTGKAPNLDKMADDLLAAADKYALERLKVMCEDALCSNLSVENAAEILILADLHSADQLKTQAVDFINYHASDVLETSGWKSMVVSHPHLVAEAYRSLASAQCPFLGPPRKRLKQS [F133V] |

Variants of: B1
Conditions: with tfe2_human TCF3, P15923

| effect of a mutation on the interaction | Variant |
| --- | --- |
| with no effect | MSRVPSPPPPAEMSSGPVAESWCYTQIKVVKFSYMWTINNFSFCREEMGEVIKSSTFSSGANDKLKWCLRVNPKGLDEESKDYLSLYLLLVSCPKSEVRAKFKFSILNAKGEETKAMESQRAYRFVQGKDWGVKKFIRRDFLLDEANGLLPDDKLTLFCEVSVVQDSVNISGQNTMNMVKVPECRLADELGGLWENSRFTDCCLCVAGQEFQAHKAILAARSPVFSAMFEHEMEESKKNRVEINDVEPEVFKEMMCFIYTGKAPNLDKMADDLLAAADKYALERLKVMCEDALCSNLSVENAAEILILADLHSADQLKTQAVDFINYHASDVLETSGWKSMVVSHPHLVAEAYRSLASAQCPFLGPPRKRLKQS [F133V] |

Variants of: B1
Conditions: with tead1_human TEAD1, P28347

| effect of a mutation on the interaction | Variant |
| --- | --- |
| with no effect | MSRVPSPPPPAEMSSGPVAESWCYTQIKVVKFSYMWTINNFSFCREEMGEVIKSSTFSSGANDKLKWCLRVNPKGLDEESKDYLSLYLLLVSCPKSEVRAKFKFSILNAKGEETKAMESQRAYRFVQGKDWGVKKFIRRDFLLDEANGLLPDDKLTLFCEVSVVQDSVNISGQNTMNMVKVPECRLADELGGLWENSRFTDCCLCVAGQEFQAHKAILAARSPVFSAMFEHEMEESKKNRVEINDVEPEVFKEMMCFIYTGKAPNLDKMADDLLAAADKYALERLKVMCEDALCSNLSVENAAEILILADLHSADQLKTQAVDFINYHASDVLETSGWKSMVVSHPHLVAEAYRSLASAQCPFLGPPRKRLKQS [F133V] |

Variants of: B1
Conditions: with tead3_human TEAD3, Q99594
Sequence of tead3_human TEAD3, Q99594 (Q99594 whole entry): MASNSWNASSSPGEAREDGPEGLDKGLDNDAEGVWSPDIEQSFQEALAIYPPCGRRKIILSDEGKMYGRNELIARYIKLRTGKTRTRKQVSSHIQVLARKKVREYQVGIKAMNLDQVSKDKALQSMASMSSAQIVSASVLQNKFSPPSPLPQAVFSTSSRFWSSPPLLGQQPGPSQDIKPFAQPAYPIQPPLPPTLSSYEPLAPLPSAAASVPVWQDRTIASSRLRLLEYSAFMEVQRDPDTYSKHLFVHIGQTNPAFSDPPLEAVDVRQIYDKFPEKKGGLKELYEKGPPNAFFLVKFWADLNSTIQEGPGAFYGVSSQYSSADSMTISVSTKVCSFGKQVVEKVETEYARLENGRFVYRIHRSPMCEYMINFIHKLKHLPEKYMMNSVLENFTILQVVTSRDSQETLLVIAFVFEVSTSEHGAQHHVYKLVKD

| effect of a mutation on the interaction | Variant |
| --- | --- |
| with no effect | MSRVPSPPPPAEMSSGPVAESWCYTQIKVVKFSYMWTINNFSFCREEMGEVIKSSTFSSGANDKLKWCLRVNPKGLDEESKDYLSLYLLLVSCPKSEVRAKFKFSILNAKGEETKAMESQRAYRFVQGKDWGVKKFIRRDFLLDEANGLLPDDKLTLFCEVSVVQDSVNISGQNTMNMVKVPECRLADELGGLWENSRFTDCCLCVAGQEFQAHKAILAARSPVFSAMFEHEMEESKKNRVEINDVEPEVFKEMMCFIYTGKAPNLDKMADDLLAAADKYALERLKVMCEDALCSNLSVENAAEILILADLHSADQLKTQAVDFINYHASDVLETSGWKSMVVSHPHLVAEAYRSLASAQCPFLGPPRKRLKQS [F133V] |

Variants of: B1
Conditions: with tead4_human TEAD4, Q15561
Sequence of tead4_human TEAD4, Q15561 (Q15561 whole entry): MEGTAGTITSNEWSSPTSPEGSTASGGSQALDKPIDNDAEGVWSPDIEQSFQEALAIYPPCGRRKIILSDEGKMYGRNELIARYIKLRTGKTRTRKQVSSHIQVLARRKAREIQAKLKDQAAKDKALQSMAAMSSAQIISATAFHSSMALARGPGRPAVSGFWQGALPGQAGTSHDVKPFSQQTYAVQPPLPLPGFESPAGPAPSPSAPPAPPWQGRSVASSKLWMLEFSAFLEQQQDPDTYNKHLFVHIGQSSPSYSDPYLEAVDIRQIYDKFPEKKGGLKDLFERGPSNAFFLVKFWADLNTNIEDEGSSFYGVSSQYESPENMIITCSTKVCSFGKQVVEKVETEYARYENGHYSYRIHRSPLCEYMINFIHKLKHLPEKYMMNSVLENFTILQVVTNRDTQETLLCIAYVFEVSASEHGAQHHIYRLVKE

| effect of a mutation on the interaction | Variant |
| --- | --- |
| with no effect | MSRVPSPPPPAEMSSGPVAESWCYTQIKVVKFSYMWTINNFSFCREEMGEVIKSSTFSSGANDKLKWCLRVNPKGLDEESKDYLSLYLLLVSCPKSEVRAKFKFSILNAKGEETKAMESQRAYRFVQGKDWGVKKFIRRDFLLDEANGLLPDDKLTLFCEVSVVQDSVNISGQNTMNMVKVPECRLADELGGLWENSRFTDCCLCVAGQEFQAHKAILAARSPVFSAMFEHEMEESKKNRVEINDVEPEVFKEMMCFIYTGKAPNLDKMADDLLAAADKYALERLKVMCEDALCSNLSVENAAEILILADLHSADQLKTQAVDFINYHASDVLETSGWKSMVVSHPHLVAEAYRSLASAQCPFLGPPRKRLKQS [F133V] |

Variants of: B1
Conditions: with tgfr2_human TGFBR2, P37173
Sequence of tgfr2_human TGFBR2, P37173 (P37173 whole entry): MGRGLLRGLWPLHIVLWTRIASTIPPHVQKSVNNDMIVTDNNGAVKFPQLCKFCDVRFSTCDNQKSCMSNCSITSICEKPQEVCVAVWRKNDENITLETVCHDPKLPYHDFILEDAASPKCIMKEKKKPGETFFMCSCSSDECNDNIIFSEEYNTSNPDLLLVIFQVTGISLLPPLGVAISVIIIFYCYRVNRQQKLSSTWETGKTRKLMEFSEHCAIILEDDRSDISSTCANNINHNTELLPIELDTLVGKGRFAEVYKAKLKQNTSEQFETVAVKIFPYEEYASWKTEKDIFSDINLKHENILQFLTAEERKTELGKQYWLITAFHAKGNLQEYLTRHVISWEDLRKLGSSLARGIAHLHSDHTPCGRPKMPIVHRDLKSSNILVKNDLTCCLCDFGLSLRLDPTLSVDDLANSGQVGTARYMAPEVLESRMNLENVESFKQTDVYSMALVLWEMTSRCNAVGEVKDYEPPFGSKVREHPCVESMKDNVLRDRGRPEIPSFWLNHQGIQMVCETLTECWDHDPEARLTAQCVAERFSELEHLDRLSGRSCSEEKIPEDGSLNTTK

| effect of a mutation on the interaction | Variant |
| --- | --- |
| with no effect | MSRVPSPPPPAEMSSGPVAESWCYTQIKVVKFSYMWTINNFSFCREEMGEVIKSSTFSSGANDKLKWCLRVNPKGLDEESKDYLSLYLLLVSCPKSEVRAKFKFSILNAKGEETKAMESQRAYRFVQGKDWGVKKFIRRDFLLDEANGLLPDDKLTLFCEVSVVQDSVNISGQNTMNMVKVPECRLADELGGLWENSRFTDCCLCVAGQEFQAHKAILAARSPVFSAMFEHEMEESKKNRVEINDVEPEVFKEMMCFIYTGKAPNLDKMADDLLAAADKYALERLKVMCEDALCSNLSVENAAEILILADLHSADQLKTQAVDFINYHASDVLETSGWKSMVVSHPHLVAEAYRSLASAQCPFLGPPRKRLKQS [F133V] |

Variants of: B1
Conditions: with tnr14_human TNFRSF14, Q92956
Sequence of tnr14_human TNFRSF14, Q92956 (Q92956 whole entry): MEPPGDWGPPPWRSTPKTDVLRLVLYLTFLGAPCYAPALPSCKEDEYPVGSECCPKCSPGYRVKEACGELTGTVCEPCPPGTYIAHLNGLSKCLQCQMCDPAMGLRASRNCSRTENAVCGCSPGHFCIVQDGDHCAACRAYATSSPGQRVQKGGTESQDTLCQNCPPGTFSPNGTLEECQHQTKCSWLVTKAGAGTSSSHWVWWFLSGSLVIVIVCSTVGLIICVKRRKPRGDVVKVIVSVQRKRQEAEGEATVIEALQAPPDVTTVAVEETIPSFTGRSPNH

| effect of a mutation on the interaction | Variant |
| --- | --- |
| with no effect | MSRVPSPPPPAEMSSGPVAESWCYTQIKVVKFSYMWTINNFSFCREEMGEVIKSSTFSSGANDKLKWCLRVNPKGLDEESKDYLSLYLLLVSCPKSEVRAKFKFSILNAKGEETKAMESQRAYRFVQGKDWGVKKFIRRDFLLDEANGLLPDDKLTLFCEVSVVQDSVNISGQNTMNMVKVPECRLADELGGLWENSRFTDCCLCVAGQEFQAHKAILAARSPVFSAMFEHEMEESKKNRVEINDVEPEVFKEMMCFIYTGKAPNLDKMADDLLAAADKYALERLKVMCEDALCSNLSVENAAEILILADLHSADQLKTQAVDFINYHASDVLETSGWKSMVVSHPHLVAEAYRSLASAQCPFLGPPRKRLKQS [F133V] |

Variants of: B1
Conditions: with tpx2_human TPX2, Q9ULW0
Sequence of tpx2_human TPX2, Q9ULW0 (Q9ULW0 whole entry): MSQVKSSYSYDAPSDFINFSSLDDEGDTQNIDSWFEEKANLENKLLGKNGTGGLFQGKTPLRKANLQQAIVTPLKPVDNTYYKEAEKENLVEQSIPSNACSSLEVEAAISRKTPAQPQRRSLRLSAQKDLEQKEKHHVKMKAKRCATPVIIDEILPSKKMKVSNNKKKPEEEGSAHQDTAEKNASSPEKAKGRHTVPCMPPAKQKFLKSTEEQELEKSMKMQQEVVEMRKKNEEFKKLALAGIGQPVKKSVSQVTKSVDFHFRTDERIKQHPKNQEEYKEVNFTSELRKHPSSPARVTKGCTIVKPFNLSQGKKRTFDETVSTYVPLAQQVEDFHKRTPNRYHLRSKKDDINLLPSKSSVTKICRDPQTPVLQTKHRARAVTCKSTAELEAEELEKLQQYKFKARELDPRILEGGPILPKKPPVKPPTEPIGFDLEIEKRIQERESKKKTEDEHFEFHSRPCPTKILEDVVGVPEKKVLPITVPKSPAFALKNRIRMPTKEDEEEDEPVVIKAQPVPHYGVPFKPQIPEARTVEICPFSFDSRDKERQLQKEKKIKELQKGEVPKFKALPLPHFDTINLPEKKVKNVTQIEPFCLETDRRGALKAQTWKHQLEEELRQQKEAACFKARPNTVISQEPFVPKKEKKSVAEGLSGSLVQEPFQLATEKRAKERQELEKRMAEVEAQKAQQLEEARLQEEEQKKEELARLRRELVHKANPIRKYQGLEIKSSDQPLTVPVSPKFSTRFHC

| effect of a mutation on the interaction | Variant |
| --- | --- |
| with no effect | MSRVPSPPPPAEMSSGPVAESWCYTQIKVVKFSYMWTINNFSFCREEMGEVIKSSTFSSGANDKLKWCLRVNPKGLDEESKDYLSLYLLLVSCPKSEVRAKFKFSILNAKGEETKAMESQRAYRFVQGKDWGVKKFIRRDFLLDEANGLLPDDKLTLFCEVSVVQDSVNISGQNTMNMVKVPECRLADELGGLWENSRFTDCCLCVAGQEFQAHKAILAARSPVFSAMFEHEMEESKKNRVEINDVEPEVFKEMMCFIYTGKAPNLDKMADDLLAAADKYALERLKVMCEDALCSNLSVENAAEILILADLHSADQLKTQAVDFINYHASDVLETSGWKSMVVSHPHLVAEAYRSLASAQCPFLGPPRKRLKQS [F133V] |

Variants of: B1
Conditions: with tsc2_human TSC2, P49815
Sequence of tsc2_human TSC2, P49815 (P49815 whole entry): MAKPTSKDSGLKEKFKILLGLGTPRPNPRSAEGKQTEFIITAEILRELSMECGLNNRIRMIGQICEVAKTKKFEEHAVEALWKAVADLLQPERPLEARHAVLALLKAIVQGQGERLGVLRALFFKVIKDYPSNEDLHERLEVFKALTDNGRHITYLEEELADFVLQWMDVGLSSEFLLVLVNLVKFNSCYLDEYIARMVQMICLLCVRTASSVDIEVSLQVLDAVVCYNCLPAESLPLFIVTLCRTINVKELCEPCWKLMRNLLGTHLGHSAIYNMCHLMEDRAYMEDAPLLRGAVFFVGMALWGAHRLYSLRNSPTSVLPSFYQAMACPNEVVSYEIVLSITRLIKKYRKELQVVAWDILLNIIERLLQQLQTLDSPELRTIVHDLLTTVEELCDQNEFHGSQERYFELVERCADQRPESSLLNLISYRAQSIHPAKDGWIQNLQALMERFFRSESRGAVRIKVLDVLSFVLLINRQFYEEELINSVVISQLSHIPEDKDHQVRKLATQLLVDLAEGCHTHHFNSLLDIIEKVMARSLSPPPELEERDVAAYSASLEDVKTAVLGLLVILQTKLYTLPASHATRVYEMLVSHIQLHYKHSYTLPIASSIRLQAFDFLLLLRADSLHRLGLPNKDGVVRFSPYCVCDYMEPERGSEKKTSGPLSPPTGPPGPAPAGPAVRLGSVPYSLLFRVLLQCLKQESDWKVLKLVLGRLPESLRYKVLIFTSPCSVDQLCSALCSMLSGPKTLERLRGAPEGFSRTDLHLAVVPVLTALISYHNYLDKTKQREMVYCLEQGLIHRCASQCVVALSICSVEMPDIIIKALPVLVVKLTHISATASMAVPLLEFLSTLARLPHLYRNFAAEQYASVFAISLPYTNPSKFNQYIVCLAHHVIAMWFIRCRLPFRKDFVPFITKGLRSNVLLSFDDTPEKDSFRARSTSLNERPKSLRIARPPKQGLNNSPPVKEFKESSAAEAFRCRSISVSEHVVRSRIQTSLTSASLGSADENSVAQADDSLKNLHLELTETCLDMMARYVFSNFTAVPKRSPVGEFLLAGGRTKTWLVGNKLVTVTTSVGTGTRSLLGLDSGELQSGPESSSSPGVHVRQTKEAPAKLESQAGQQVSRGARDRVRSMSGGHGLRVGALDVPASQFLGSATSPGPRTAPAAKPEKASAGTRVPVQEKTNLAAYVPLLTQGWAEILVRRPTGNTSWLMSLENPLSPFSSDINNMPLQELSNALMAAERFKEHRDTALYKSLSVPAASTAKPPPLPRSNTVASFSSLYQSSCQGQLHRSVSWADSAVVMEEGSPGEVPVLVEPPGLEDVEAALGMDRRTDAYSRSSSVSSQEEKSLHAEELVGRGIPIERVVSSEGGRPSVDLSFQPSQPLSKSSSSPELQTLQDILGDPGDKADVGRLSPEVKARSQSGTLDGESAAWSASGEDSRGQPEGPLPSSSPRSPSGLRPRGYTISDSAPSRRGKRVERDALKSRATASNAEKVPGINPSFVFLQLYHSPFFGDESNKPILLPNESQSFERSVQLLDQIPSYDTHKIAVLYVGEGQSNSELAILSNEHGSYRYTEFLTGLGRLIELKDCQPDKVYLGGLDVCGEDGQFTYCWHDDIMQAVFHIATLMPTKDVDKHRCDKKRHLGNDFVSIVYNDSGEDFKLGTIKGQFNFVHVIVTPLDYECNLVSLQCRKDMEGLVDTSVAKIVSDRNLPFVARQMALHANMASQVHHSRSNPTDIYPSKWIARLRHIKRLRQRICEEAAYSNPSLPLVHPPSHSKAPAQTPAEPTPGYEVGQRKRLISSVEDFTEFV

| effect of a mutation on the interaction | Variant |
| --- | --- |
| with no effect | MSRVPSPPPPAEMSSGPVAESWCYTQIKVVKFSYMWTINNFSFCREEMGEVIKSSTFSSGANDKLKWCLRVNPKGLDEESKDYLSLYLLLVSCPKSEVRAKFKFSILNAKGEETKAMESQRAYRFVQGKDWGVKKFIRRDFLLDEANGLLPDDKLTLFCEVSVVQDSVNISGQNTMNMVKVPECRLADELGGLWENSRFTDCCLCVAGQEFQAHKAILAARSPVFSAMFEHEMEESKKNRVEINDVEPEVFKEMMCFIYTGKAPNLDKMADDLLAAADKYALERLKVMCEDALCSNLSVENAAEILILADLHSADQLKTQAVDFINYHASDVLETSGWKSMVVSHPHLVAEAYRSLASAQCPFLGPPRKRLKQS [F133V] |
